Data published in patent US20080267971A1 (published 2008).

T1: human Angiopoietin-2 (human, UniProt O15123 19-496)
T1 construct: Mostly bought recombinant protein (R&D Systems 623-AM/CF, 623-AN; biotinylated BT623) or supernatant of transfected 293F cells; also called Ang-2; rhAng-2
T1 sequence: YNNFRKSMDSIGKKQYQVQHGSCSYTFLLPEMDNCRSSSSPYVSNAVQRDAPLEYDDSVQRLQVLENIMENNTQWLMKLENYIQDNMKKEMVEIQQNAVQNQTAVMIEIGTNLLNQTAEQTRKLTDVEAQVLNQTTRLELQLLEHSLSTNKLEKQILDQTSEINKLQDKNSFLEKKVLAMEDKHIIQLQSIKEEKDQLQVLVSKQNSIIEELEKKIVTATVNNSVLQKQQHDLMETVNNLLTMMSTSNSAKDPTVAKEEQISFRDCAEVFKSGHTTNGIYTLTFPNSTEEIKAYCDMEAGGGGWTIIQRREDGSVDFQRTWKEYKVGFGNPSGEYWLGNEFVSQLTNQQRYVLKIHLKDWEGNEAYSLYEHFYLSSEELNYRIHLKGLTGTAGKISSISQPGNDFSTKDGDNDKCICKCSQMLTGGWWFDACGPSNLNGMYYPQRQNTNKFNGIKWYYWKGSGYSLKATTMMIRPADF


How the values were obtained:
human Angiopoietin-2 [1] = target: T1, human Angiopoietin-2; experiment: FACS: inhibition of Ang-2 binding to HEK293F/Tie2 cells
Experimental: Cell suspension of 4 million cells/mL in FACS Buffer were prepared, and then aliquoted to a 96-well polypropylene plate with 50 ul per well. […] Cells were washed by centrifuging the plate at 1,200 rpm for 5 minutes, removing the supernatant by aspirating, and resuspending the cells with 200 ul per well of FACS Buffer. Washing procedures were repeated twice. The cells were then suspended with 100 ul of mouse Anti-6×-Histidine antibody diluted to 2 ug/ml in FACS Buffer, and incubated at room temperature for 30 minutes. After washing, the cells were suspended in 100 ul of PE-conjugated goat anti-mouse-IgG, which was diluted 1:100 in FACS Buffer, for incubation at room temperature for 30 minutes. The volume of the samples were brought to 300 ul with FACS Buffer, and measured with FACS Calibur.

human Angiopoietin-2 [2] = target: T1, human Angiopoietin-2; experiment: high resolution Biacore, 1st experiment; kd held constant (*)
Experimental: The mAb was then immobilized on flow cells 1-3 (CM5 Biacore chip) using routine amine coupling, leaving flow cell 4 as the reference flow cell.
The antibody surfaces were regenerated with a 6-second pulse of 15 mM NaOH after each injection cycle.
The sample injections alternated with three blank injection cycles. Each surface was regenerated with a 6-second pulse of 15 mM NaOH after each long off-rate injection cycle.

human Angiopoietin-2 [3] = target: T1, human Angiopoietin-2; experiment: Biacore, mAb immobilized, 8 h dissociation

EC50 (human Angiopoietin-2 [1]) [pM]	koff (human Angiopoietin-2 [2]) [s⁻¹]	Kd (human Angiopoietin-2 [3]) [pM]	koff (human Angiopoietin-2 [3]) [s⁻¹]	kon (human Angiopoietin-2 [3]) [M⁻¹ s⁻¹]	Binder
731	~1e-06				mAb 3.19.3 (antibody, V domains shown, Human hybridoma IgG (XenoMouse); also called x3.19) VH: QVQLVESGGGVVQPGRSLRLSCAASGFTFTNYGMHWGRQAPGKGLEWVAVISHDGNNKYYVDSVKGRFTISRDNSKNTLYLQMNSLRAEDTAVYYCAREGIDFWSGLNWFDPWGQGTLVTVSS VL: EIVLTQSPGTLSLSPGERATLSCRASQSITGSYLAWYQQKPGQAPRLLICGASSWATGIPDRFSGSGSGTDFTLTISRLEPEDFAVYYCQQYSSSPITFGQGTRLEIKR
		3.31	1.87e-06	564000	mAb 5.35.1 (antibody, V domains shown, Human hybridoma IgG (XenoMouse); also called x5.35) VH: EVQLVESGGGVVRPGGSLRLSCTTSGFTFDDYGMSWVRQAPGKGLEWVSGINWNGGSTVYADSVKGRFTISRDSAKNSLYLQMNSLRAEDTALYHCARNKQWLWYFDLWGRGTLVTVSS VL: EIVMTQSPATLSVSPGERATLSCRASQSVSSNLAWYQQKPGQAPRLLIYGASTRATGIPARFSGSGSGTEFTLTISSLQSEDFAVYYCEQYNNWPLTFGGGTKVEIKR
